Assay results from publication PMC12691606.

Target: RGNNV capsid protein (CP) of the virus (red-spotted grouper nervous necrosis virus (RGNNV))

B1: His-EcCXCR4b recombinant protein (pET-32a-EcCXCR4b) (receptor)
chain: MSYYEHIVFDYDLNDTGSGSGSGDMGVDLQELCDMEHVITDELQQVFLPVVYALIFILGITGNGLVVIVLGCQRRSKCSLTDRYRLHLSAADLLFVLALPFWAVDAALADWRFGEVTCVGVNVIYTVNLYGSVLILAFISLDRYLAVVRATDTNTGELRQLLAHKLVYVGAWLPAGLLAVPDLIYARTQEGGEGATLCQRFYPADNGPIWVAVFHLQLVLVGLVIPGLVLLVCYCVIVTRLTRGPLGGQRQKRRAVRTTIALVLCFFVCWLPYGAGISVDALLRLEVLPRSCRLEAILGVWLAVAEPMAFAHCCLNPLLYAFLGAGFKSSARRALTLSRASSLKILPRRRPGASTTTESESSSLHSS
With B1 as the binder, how does the survival rate of groupers over 14 days after injection of RGNNV pre-incubated with His-EcCXCR4b protein (6× His control: 23.3%) read?
The survival rate of groupers over 14 days after injection of RGNNV pre-incubated with His-EcCXCR4b protein (6× His control: 23.3%) was 73.3%.
